Measurements reported in the supplement of paper PMC10567573.

B1: STK38L (parent)
chain: FLPGGDMMTLLMKKDTLTEEETQF

Variants of: B1
Experiment: protein stability index of a GFP-peptide fusion (GPS, HEK-293T) (PSI 1-6); higher = more stable
Details: c terminus: a fixed tail appended
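Also: lentivirally expressed fusions sorted by FACS into six bins by GFP to DsRed ratio, PSI derived from sequencing read proportions per bin multiplied by bin number.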

Protein stability index, by site and new letter:
E21: C 2.01 | I 2 | L 1.56 | Y 1.88 | D 2.07 | H 1.81 | A 1.94 | S 2.19 | Q 2.04 | V 1.71 | T 1.74 | R 2.21 | K 2.16 | W 2.14
L11: H 3.43 | W 1.56 | S 3.41 | E 4.25 | Q 3.89 | P 3.89 | K 3.91 | I 2.53 | Y 2.41 | R 3.29 | G 2.89 | N 3.4 | T 3.07 | F 1.84 | V 3.18 | C 2.63
T16: G 2.43 | F 1.89 | C 2.21 | P 3.02 | D 2.58 | M 2 | I 2.36 | A 2.4 | V 2.33 | E 2.19 | S 2.13
K14: I 1.96 | R 1.96 | S 2.69 | G 2.25 | C 2.55 | W 1.7 | M 1.97 | D 2.92 | A 2.48 | V 1.62 | T 2.27 | L 1.89 | Y 2.09 | N 1.81 | E 2.88
T22: L 2.12 | F 2.25 | P 1.69 | A 2.53 | H 2.06 | V 2.23 | I 2.35 | Y 2.75 | Q 2.21 | M 1.97 | R 2.37 | G 2.08 | E 3.21 | W 2.4 | S 2.37
L10: W 1.98 | P 3.9 | Q 3.91 | G 3.79 | R 3.32 | A 3.73 | Y 2 | N 4.26 | K 3.11 | M 3.16 | H 3.38 | E 4.71
T9: Q 2.69 | F 2.16 | E 3.2 | M 3.26 | K 2.12 | S 2.38 | A 2.52 | I 2.19 | P 4.22 | C 2.01 | W 2.2 | H 2.45 | Y 2
D6: W 1.4 | N 2.69 | Q 1.96 | A 1.7 | Y 2.42 | L 2.71 | M 2.54 | F 1.96 | V 2.33 | C 2.24 | I 1.85 | P 1.87 | R 2.18 | H 1.72 | S 2.07 | T 1.82
F1: K 4.54 | W 3.49 | C 4.39 | Q 4.79 | T 4.68 | H 4.48 | S 4.29 | V 4.67 | N 4.66 | E 4.92 | I 3.88 | M 4.39 | Y 2.33 | L 3.71
P3: I 2.31 | Y 1.68 | R 2.76 | G 2.96 | D 2.12 | K 2.91 | Q 2.31 | H 1.98 | N 1.89 | T 2.23 | L 1.86 | M 2.18 | F 2.22
L17: H 2.26 | D 3.2 | Y 2 | K 2.51 | E 3.35 | R 2.39 | W 1.75 | I 2.11 | G 2.37 | V 1.94 | T 2.63 | S 2.59 | N 2.78 | C 2.36 | Q 1.98
Q23: M 2.4 | G 2.61 | D 3.06 | P 2.21 | N 2.37 | Y 1.88 | T 2.09 | F 1.24 | K 2.45 | C 2.24 | L 1.74 | W 1.43 | S 2.91 | A 2.05 | R 3.09 | E 2.25 | H 2.27
G5: E 3.72 | V 2.79 | D 4.23 | T 3.44 | I 2.63 | M 3.13 | R 3 | K 4.21 | H 2.75 | N 3.13 | F 2.84 | A 2.63 | Y 2.63 | C 2.94 | L 3.01
L2: S 2.6 | I 2.07 | F 3.08 | W 3 | M 2.33 | Y 3.68 | Q 2.15 | K 4.24 | P 2.65 | H 1.91 | C 1.42 | T 2.54 | V 1.78 | E 4.84 | R 4.15
M12: T 3.49 | S 3.48 | Y 2.84 | D 4.06 | H 3.69 | L 2.35 | E 3.68 | K 3.69 | V 3.36 | W 1.95 | A 2.81 | Q 3.25 | I 2.56 | G 3.72
D15: N 2.23 | A 1.62 | S 1.76 | C 2.16 | Y 1.1 | M 2.53 | T 1.86 | V 2.2 | E 3.01 | R 1.84 | H 2.35 | L 2.56
K13: T 2.69 | S 2.56 | D 3.66 | G 2.3 | P 2.24 | M 2.28 | V 1.95 | N 2.49 | W 1.69
M7: V 2.85 | H 3.72 | T 3.87 | N 3.05 | Q 3.65 | P 3.67 | L 2.43 | C 2.63 | F 2.23 | Y 2.81 | E 4.77 | G 3.16 | R 3.61
G4: K 3.27 | Y 2.29 | W 1.82 | M 2.35 | Q 3.36 | L 2.42 | E 3.57 | R 3.26 | V 3.39 | P 3.95 | C 3.09 | T 3.34
T18: S 2.83 | N 2.24 | G 2.01 | H 2.05 | M 1.7 | C 1.57 | P 2.68 | Q 2.34 | V 2.49 | Y 2.18 | K 2 | E 2.36 | R 1.84 | W 2.17
E19: M 1.66 | F 1.87 | Y 1.9 | Q 2.12 | N 1.72 | I 2.02 | L 1.62 | W 2.14 | P 2.11 | K 1.97 | C 1.73 | D 2.42 | H 2.01
M8: A 3.75 | Q 3.35 | T 4.3 | C 3.33 | S 4.02 | L 2.06 | P 3.82 | G 3.76 | V 2.54 | D 4.8 | F 1.84 | N 4.12 | Y 1.94 | E 4.21 | W 1.44
E20: A 1.86 | L 1.13 | D 2.45 | C 2.27 | S 1.68 | Y 2.08 | Q 1.76 | G 1.6 | V 1.79 | N 2.5 | H 1.97 | K 1.75 | P 1.82
F24: L 3.02 | N 2.65 | V 2.65 | K 2.53 | Y 2.52 | P 2.64 | A 2.28 | S 2.19 | C 1.77 | H 2.44 | I 2.77 | E 2.35 | R 2.09 | D 2.97 | G 2.84 | M 2.4 | T 2.42 | W 2.09
